The target of assay [1] is polypeptide C8079BB030-1 (…). Put plainly: indirect ELISA on coated peptide (1 ug/ml); unimmunized serum 1:1,000; column No. 1956. For orientation: In an ELISA, binding on a coated surface is turned into a signal by an enzyme label.
Assay [2] concerns the target polypeptide C8079BB030-1 (…). The assay is described as follows: indirect ELISA on coated peptide (1 ug/ml); unimmunized serum 1:1,000; column No. 1957.
Assay [3] concerns the target polypeptide C8079BB030-1 (…). Put plainly: indirect ELISA on coated peptide (1 ug/ml); unimmunized serum 1:1,000; column No. 1955.
In assay [4] the target is polypeptide C8079BB030-1 (…). The assay is described as follows: indirect ELISA on coated peptide (1 ug/ml); unimmunized serum 1:1,000; column No. 1954.
Assay [5] has as its target polypeptide C8079BB030-1 (…). The assay is described as follows: indirect ELISA on coated peptide (1 ug/ml); unimmunized serum 1:1,000; column No. 1958.
In assay [6] the target is T1, HA-tagged human Nav1.9 expressed in ND7/23 cells (human, UniProt Q9UI33 1-1791, limits assumed).
T1 construct: Assayed as SDS-PAGE-separated lysate of transfected ND7/23 cells (Western blot); also called HA-hNav1.9; human Nav1.9-HA; not shown: HA tag
The assay is described as follows: Western blot of lysate of ND7/23 cells transfected with HA-hNav1.9; antibody 1:300. On the procedure: 4. The cell lysate was centrifuged at 12000 rpm for 10 minutes at 4° C. to collect the cell lysis supernatant.
6. After […], the cells were incubated with HA tag (1:2000) antibody and 5A2F9-4 (1:300) antibody for 1 hour at room temperature.
8. A digoxigenin-labeled anti-mouse antibody (1:20000) was added and incubated for 1 hour at room temperature;
On the technique in general: In western blotting, separated proteins are transferred to a membrane and probed.

T1 sequence (Q9UI33 whole entry): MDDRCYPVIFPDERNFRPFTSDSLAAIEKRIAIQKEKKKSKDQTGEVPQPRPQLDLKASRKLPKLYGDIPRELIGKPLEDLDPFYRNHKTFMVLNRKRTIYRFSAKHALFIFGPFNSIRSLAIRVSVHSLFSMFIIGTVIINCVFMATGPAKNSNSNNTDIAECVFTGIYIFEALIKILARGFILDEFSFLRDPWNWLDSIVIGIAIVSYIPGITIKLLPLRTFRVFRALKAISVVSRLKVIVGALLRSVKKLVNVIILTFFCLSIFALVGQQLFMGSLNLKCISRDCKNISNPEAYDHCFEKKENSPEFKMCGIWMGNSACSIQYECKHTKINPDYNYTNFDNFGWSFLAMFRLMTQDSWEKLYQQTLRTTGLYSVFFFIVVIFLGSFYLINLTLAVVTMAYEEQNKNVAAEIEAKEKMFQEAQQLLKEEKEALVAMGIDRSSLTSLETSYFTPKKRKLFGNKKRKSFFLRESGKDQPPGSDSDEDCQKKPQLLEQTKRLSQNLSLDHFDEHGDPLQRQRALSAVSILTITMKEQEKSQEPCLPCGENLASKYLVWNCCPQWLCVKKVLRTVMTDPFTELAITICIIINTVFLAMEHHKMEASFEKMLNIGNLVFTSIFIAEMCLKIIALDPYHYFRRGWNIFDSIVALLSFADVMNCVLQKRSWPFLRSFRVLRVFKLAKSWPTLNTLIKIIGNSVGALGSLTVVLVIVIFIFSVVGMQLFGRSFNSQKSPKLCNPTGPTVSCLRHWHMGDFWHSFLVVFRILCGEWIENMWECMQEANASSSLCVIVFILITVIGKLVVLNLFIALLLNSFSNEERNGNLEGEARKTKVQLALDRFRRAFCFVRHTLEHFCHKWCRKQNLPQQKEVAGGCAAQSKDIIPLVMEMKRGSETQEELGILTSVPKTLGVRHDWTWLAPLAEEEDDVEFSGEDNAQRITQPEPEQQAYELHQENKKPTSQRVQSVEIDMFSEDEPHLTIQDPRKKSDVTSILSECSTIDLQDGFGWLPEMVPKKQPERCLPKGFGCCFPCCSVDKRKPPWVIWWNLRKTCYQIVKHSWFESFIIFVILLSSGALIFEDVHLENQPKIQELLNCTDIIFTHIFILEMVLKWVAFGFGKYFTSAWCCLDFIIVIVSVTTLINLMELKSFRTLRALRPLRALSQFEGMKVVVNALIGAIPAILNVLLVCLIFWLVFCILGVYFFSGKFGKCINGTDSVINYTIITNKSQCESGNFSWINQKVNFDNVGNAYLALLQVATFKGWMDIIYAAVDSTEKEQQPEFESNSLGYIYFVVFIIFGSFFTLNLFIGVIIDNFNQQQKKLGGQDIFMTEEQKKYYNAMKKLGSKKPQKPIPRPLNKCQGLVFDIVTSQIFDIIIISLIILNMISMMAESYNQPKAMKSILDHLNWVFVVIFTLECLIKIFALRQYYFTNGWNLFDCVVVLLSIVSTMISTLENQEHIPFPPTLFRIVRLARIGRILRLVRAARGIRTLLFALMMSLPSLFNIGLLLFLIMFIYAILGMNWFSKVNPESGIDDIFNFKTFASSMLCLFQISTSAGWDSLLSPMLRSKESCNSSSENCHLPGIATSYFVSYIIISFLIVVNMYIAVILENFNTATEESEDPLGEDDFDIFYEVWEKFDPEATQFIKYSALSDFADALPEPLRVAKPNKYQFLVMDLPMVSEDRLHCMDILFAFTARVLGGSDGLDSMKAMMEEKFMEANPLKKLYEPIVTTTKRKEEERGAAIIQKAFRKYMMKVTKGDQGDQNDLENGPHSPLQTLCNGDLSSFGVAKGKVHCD

With negative control of unimmunized serum, the OD value (450 nm) in assay [1] was determined as 0.086 OD450; in assay [2], 0.088 OD450; in assay [3], 0.066 OD450; in assay [4], 0.072 OD450; in assay [5], 0.104 OD450.

B1: 5A2F9-4 antibody (antibody, V domains shown)
VH: QVQLQQPGAELVKPGASVKLSCKASGYTFTSYWMHWVKQRPGQGLEWIGEINPRNGRINQNEKFKSKATLTVAKSSSTAYMQLSSLTSEDSAVYYCSRGGGSSAEGGYWGQGTTLTVSS
VL: DVLMTQTPLSLPVSLGDQASISCRSSQSIVHSNGNTYLDWYLQKPGQSPKLLIYKVFNRLSGVPDRFSGSGSGTDFTLKISRVEAEDLGVYYCFQGSHVPLTFGAGTKLELQ
notes: Mouse hybridoma monoclonal antibody
Turning to B1, the binding result in assay [6] was “binds”.

Source of the values: US20200157198A1 (POPULAS BIOPHARMACEUTICAL WUHAN, published 2020).
